According to patent US20260232732A1 (FUNDACI INSTITUT DE RECERCA CONTRA LA LEUC MIA JOSEP …, published 2026):
Where no end group is shown, it is not given here.

Columns and labels:
[1] = target: T1, Peptide 3-BSA (SSMEDYVNFN-C conjugated to BSA) (human); experiment: ELISA; Ab 0.0625 ug/mL; repI
T1 peptide: SSMEDYVNFNC(BSA)
Procedure: (§1) In brief, plates with each non-conjugated peptide (50 μg/mL) or BSA-conjugated peptide (5 μg/mL) were coated in 0.58M carbonate-bicarbonate buffer pH9.5, 100 μL/well, at 4° C. […] After washing, wells were incubated with the 3, 3′,5,5′-Tetramethylbenzidine (TMB) HRP substrate and reactions were stopped with 2M HCl and OD450 was recorded.

[2] = target: T2, Peptide 1, non-conjugated (MADDYGSEST-C) (human); experiment: ELISA; Ab 0.0625 ug/mL; repI
T2 construct: With the extra C-terminal Cys
T2 peptide: MADDYGSESTC
Procedure: as §1

[3] = target: T3, BSA (negative control coating) (bovine, UniProt P02769 25-607); experiment: ELISA; Ab 0.0625 ug/mL; repI
T3 construct: also called Negative control BSA
T3 sequence (P02769 25-607 limits assumed): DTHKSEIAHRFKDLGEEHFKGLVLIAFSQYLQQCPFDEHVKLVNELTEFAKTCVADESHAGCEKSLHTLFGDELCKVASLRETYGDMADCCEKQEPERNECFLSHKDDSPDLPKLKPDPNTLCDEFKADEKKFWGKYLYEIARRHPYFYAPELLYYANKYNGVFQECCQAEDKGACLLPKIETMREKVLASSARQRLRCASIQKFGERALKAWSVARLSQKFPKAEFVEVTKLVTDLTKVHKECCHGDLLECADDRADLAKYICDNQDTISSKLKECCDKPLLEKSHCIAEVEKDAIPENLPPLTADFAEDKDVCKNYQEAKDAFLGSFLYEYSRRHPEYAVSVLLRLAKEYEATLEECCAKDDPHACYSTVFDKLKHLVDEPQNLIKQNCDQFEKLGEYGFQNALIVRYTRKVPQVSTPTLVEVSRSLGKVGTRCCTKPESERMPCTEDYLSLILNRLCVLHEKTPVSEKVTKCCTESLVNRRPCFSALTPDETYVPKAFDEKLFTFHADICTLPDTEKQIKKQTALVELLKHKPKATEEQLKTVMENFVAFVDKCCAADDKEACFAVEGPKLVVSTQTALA
Procedure: as §1

[4] = target: T4, Peptide 1-BSA (MADDYGSEST-C conjugated to BSA) (human); experiment: ELISA; Ab 0.0625 ug/mL; repI
T4 peptide: MADDYGSESTC(BSA)
Procedure: as §1

[5] = target: T5, Peptide 4, non-conjugated (SMEDYVNFNF-C) (human); experiment: ELISA; Ab 0.0625 ug/mL; repI
T5 construct: With the extra C-terminal Cys
T5 peptide: SMEDYVNFNFC
Procedure: as §1

[6] = target: T6, Peptide 2, non-conjugated (GSESTSSMED-C) (human); experiment: ELISA; Ab 0.0625 ug/mL; repI
T6 construct: With the extra C-terminal Cys
T6 peptide: GSESTSSMEDC
Procedure: as §1

[7] = target: T7, antigen peptide-BSA (immunisation peptide #1 MADDYGSESTSSMEDYVNFNF-C conjugated to BSA) (human, extra C-terminal Cys conjugated to BSA); experiment: ELISA; Ab 0.0625 ug/mL; repI
T7 construct: also called Positive control antigen peptide-BSA; MADDY peptide
T7 peptide: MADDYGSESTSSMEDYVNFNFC
Procedure: as §1

[8] = target: T8, Peptide 3, non-conjugated (SSMEDYVNFN-C) (human); experiment: ELISA; Ab 0.0625 ug/mL; repI
T8 construct: With the extra C-terminal Cys
T8 peptide: SSMEDYVNFNC
Procedure: as §1

[9] = target: T9, Peptide 2-BSA (GSESTSSMED-C conjugated to BSA) (human); experiment: ELISA; Ab 0.0625 ug/mL; repI
T9 peptide: GSESTSSMEDC(BSA)
Procedure: as §1

[10] = target: T10, Peptide 4-BSA (SMEDYVNFNF-C conjugated to BSA) (human); experiment: ELISA; Ab 0.0625 ug/mL; repI
T10 peptide: SMEDYVNFNFC(BSA)
Procedure: as §1

[11] = target: T1, Peptide 3-BSA (SSMEDYVNFN-C conjugated …); experiment: ELISA; Ab 0.0625 ug/mL; repII
Procedure: as §1

[12] = target: T2, Peptide 1, non-conjugated (MADDYGSEST-C); experiment: ELISA; Ab 0.0625 ug/mL; repII
Procedure: as §1

[13] = target: T3, BSA (negative control coating); experiment: ELISA; Ab 0.0625 ug/mL; repII
Procedure: as §1

[14] = target: T4, Peptide 1-BSA (MADDYGSEST-C conjugated …); experiment: ELISA; Ab 0.0625 ug/mL; repII
Procedure: as §1

[15] = target: T5, Peptide 4, non-conjugated (SMEDYVNFNF-C); experiment: ELISA; Ab 0.0625 ug/mL; repII
Procedure: as §1

[16] = target: T6, Peptide 2, non-conjugated (GSESTSSMED-C); experiment: ELISA; Ab 0.0625 ug/mL; repII
Procedure: as §1

[17] = target: T7, antigen peptide-BSA (immunisation …); experiment: ELISA; Ab 0.0625 ug/mL; repII
Procedure: as §1

[18] = target: T8, Peptide 3, non-conjugated (SSMEDYVNFN-C); experiment: ELISA; Ab 0.0625 ug/mL; repII
Procedure: as §1

[19] = target: T9, Peptide 2-BSA (GSESTSSMED-C conjugated …); experiment: ELISA; Ab 0.0625 ug/mL; repII
Procedure: as §1

[20] = target: T10, Peptide 4-BSA (SMEDYVNFNF-C conjugated …); experiment: ELISA; Ab 0.0625 ug/mL; repII
Procedure: as §1

[21] = target: T9, Peptide 2-BSA (GSESTSSMED-C conjugated …); experiment: ELISA; Ab 0.5 ug/mL; repI
Procedure: as §1

[22] = target: T4, Peptide 1-BSA (MADDYGSEST-C conjugated …); experiment: ELISA, BSA-conjugated peptide coated
Procedure: as §1

[23] = target: T9, Peptide 2-BSA (GSESTSSMED-C conjugated …); experiment: ELISA, BSA-conjugated peptide coated
Procedure: as §1

[24] = target: T2, Peptide 1, non-conjugated (MADDYGSEST-C); experiment: ELISA, non-conjugated peptide coated
Procedure: as §1

[25] = target: T6, Peptide 2, non-conjugated (GSESTSSMED-C); experiment: ELISA, non-conjugated peptide coated
Procedure: as §1

[26] = target: T1, Peptide 3-BSA (SSMEDYVNFN-C conjugated …); experiment: ELISA; Ab 0.03125 ug/mL; repI
Procedure: as §1

[27] = target: T3, BSA (negative control coating); experiment: ELISA; Ab 0.03125 ug/mL; repI
Procedure: as §1

[28] = target: T4, Peptide 1-BSA (MADDYGSEST-C conjugated …); experiment: ELISA; Ab 0.03125 ug/mL; repI
Procedure: as §1

[29] = target: T5, Peptide 4, non-conjugated (SMEDYVNFNF-C); experiment: ELISA; Ab 0.03125 ug/mL; repI
Procedure: as §1

[30] = target: T6, Peptide 2, non-conjugated (GSESTSSMED-C); experiment: ELISA; Ab 0.03125 ug/mL; repI
Procedure: as §1

[31] = target: T8, Peptide 3, non-conjugated (SSMEDYVNFN-C); experiment: ELISA; Ab 0.03125 ug/mL; repI
Procedure: as §1

OD450 [1]: 1.88 OD
OD450 [2]: 0.01 OD
OD450 [3]: 0.01 OD
OD450 [4]: 0.01 OD
OD450 [5]: 1.14 OD
OD450 [6]: 0.01 OD
OD450 [7]: 1.84 OD
OD450 [8]: 1.83 OD
OD450 [9]: 0.01 OD
OD450 [10]: 1.98 OD
OD450 [11]: 1.78 OD
OD450 [12]: 0.01 OD
OD450 [13]: 0.01 OD
OD450 [14]: 0.01 OD
OD450 [15]: 1.19 OD
OD450 [16]: 0.01 OD
OD450 [17]: 2.08 OD
OD450 [18]: 1.67 OD
OD450 [19]: 0.01 OD
OD450 [20]: 2.01 OD
OD450 [21]: 0.02 OD
binding result [22]: no binding (tested: 1 ug/mL)
binding result [23]: no binding (tested: 1 ug/mL)
binding result [24]: no binding (tested: 1 ug/mL)
binding result [25]: no binding (tested: 1 ug/mL)
OD450 [26]: 1.66 OD
OD450 [27]: 0.01 OD
OD450 [28]: 0.01 OD
OD450 [29]: 0.67 OD
OD450 [30]: 0.01 OD
OD450 [31]: 1.65 OD
B1: anti-CCR9 antibody clone 115 (murine, from hybridoma #115) (antibody, V domains shown)
VH: QVQLKQSGPELVKPGTSVRVSCTASGYSFTDYIIYWVKQSHGRSLEWIGYIDPNNYNTRYSQKFKGKATLTVDKSSTSAFMHLNSLTSDDSAVYYCARDVYWGQGTTLTVSS
VL: DVVMTQTPLSLTVSLGDQASISCRSSQSLVHSNGKTYLQWYLQKPGQSPKLLIYKVSNRFSGVPDRFSGSGSGTDFTLKISRVEAEDLGVYFCAQSTHVWTFGGGTKLEIKR
notes: Mouse IgG1
